In patent US20210024615A1 (LIVERPOOL SCHOOL OF TROPICAL MEDICINE, published 2021):
Changes are numbered by the printed parent chain.

Experiments:
Test in all cases: ELISA
[1] = target: T1, IgG1-Fc (human, UniProt P01857 104-330 = IgG part)
T1 construct: domain: Fc

[2] = target: C1q (UniProt P02745 23-245; P02746 28-253; P02747 29-245)
[3] = target: T2, human FcγRIIB (human, UniProt P31994 46-217)
T2 construct: also called CD32B
T2 sequence (looked up): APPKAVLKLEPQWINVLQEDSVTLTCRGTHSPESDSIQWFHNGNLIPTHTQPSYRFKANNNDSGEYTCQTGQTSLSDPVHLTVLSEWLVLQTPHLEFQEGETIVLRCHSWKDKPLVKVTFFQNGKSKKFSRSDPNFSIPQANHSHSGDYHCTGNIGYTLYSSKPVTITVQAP

[4] = target: human FcγRIIIA (human, UniProt P08637 17-208)
[5] = target: T3, dectin-2 (UniProt Q6EIG7 46-209)
T3 construct: also called dec-2
T3 sequence (looked up): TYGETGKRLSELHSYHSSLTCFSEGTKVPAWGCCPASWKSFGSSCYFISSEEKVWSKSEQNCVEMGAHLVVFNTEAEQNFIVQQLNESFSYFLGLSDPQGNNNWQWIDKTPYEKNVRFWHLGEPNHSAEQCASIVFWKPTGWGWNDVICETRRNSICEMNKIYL

[6] = target: T4, clec-4d (UniProt Q8WXI8 39-215)
T4 sequence (looked up): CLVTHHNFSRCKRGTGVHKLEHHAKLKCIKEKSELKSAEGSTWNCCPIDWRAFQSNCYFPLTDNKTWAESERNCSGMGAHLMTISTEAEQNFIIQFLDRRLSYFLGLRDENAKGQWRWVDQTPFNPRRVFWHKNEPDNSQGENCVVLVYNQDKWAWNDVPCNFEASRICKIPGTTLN

[7] = target: T5, clec-4a (UniProt Q9UMR7 70-237)
T5 construct: also called DCIR
T5 sequence (looked up): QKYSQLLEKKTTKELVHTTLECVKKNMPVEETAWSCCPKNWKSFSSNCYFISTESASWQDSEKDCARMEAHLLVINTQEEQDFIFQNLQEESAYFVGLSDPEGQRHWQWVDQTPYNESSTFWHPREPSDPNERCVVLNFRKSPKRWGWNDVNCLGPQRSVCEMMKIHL

[8] = target: T6, dectin-1 (UniProt Q9BXN2-2 66-201)
T6 construct: also called dec-1
T6 sequence (looked up): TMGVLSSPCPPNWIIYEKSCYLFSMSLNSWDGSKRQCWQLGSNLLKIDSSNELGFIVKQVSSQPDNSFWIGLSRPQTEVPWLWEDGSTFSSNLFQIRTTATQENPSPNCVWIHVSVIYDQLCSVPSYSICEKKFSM

[9] = target: T7, Siglec-4 (UniProt P20916 20-516)
T7 construct: also called MAG
T7 sequence (looked up): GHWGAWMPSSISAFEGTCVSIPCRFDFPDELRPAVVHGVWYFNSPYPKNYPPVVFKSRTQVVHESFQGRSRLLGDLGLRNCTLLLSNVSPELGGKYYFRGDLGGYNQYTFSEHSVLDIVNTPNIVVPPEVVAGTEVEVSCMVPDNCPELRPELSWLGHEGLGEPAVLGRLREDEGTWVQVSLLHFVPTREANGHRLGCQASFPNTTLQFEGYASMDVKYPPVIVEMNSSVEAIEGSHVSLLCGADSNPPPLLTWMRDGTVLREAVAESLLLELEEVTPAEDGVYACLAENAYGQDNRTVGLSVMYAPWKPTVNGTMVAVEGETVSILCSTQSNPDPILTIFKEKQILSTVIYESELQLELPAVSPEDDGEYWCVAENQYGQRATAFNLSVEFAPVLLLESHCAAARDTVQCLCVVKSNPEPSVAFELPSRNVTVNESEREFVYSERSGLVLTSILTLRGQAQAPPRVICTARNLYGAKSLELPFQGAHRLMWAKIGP

[10] = target: T8, tetrameric human DC-SIGN (human, UniProt Q9NNX6 66-404)
T8 sequence (looked up): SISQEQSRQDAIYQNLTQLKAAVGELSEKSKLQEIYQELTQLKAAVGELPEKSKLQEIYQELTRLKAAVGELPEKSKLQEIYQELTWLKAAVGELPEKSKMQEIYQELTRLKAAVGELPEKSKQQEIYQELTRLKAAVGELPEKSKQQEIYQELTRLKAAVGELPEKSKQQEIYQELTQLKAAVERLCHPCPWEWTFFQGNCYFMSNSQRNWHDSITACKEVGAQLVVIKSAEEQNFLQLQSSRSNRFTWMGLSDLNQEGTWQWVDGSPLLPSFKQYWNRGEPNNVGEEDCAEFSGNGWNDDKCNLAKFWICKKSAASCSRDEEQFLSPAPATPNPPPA

[11] = target: MBL (UniProt P11226 21-248)
[12] = target: T9, Siglec-2 (UniProt P20273 20-687)
T9 construct: also called CD22

[13] = target: T10, MMR (UniProt P22897 19-1383)
T10 sequence (looked up): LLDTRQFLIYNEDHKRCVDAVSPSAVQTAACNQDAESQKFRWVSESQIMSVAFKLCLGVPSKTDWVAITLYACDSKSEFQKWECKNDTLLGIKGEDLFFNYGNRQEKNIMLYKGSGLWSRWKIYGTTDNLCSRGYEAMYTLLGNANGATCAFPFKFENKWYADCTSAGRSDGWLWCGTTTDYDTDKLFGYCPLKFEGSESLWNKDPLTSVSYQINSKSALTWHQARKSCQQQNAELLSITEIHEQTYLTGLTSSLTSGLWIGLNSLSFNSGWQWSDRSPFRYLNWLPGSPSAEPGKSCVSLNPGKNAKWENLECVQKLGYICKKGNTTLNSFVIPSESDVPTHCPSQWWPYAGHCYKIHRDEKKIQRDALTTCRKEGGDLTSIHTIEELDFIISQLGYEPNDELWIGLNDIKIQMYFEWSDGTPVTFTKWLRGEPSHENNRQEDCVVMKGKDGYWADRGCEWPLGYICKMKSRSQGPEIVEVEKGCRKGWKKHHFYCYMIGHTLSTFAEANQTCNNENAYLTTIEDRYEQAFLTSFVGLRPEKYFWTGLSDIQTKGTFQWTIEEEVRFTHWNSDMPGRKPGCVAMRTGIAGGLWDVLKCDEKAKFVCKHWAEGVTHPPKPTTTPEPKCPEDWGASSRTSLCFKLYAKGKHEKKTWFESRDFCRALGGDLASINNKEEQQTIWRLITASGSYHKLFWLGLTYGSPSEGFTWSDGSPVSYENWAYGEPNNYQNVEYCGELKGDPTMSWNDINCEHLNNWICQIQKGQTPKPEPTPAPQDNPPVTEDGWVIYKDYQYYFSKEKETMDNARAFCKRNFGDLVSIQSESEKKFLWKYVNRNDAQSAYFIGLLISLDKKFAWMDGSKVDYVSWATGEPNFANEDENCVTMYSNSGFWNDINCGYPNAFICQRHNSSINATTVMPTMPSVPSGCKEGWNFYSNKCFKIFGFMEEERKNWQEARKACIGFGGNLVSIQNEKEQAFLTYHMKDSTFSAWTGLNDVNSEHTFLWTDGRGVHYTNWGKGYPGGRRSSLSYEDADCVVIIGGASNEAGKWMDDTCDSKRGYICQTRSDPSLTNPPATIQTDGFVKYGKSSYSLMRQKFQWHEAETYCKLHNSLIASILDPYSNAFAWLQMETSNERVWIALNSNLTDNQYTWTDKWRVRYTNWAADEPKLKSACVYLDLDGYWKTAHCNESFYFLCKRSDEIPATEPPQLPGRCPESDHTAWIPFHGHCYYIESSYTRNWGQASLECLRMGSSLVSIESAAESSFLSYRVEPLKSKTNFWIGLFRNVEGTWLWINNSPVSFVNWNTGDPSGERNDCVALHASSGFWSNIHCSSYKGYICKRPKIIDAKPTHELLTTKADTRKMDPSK

[14] = target: Siglec-3 (UniProt P20138 18-259)

Measured: binding result

Sequence of MBL (P11226 21-248 limits assumed): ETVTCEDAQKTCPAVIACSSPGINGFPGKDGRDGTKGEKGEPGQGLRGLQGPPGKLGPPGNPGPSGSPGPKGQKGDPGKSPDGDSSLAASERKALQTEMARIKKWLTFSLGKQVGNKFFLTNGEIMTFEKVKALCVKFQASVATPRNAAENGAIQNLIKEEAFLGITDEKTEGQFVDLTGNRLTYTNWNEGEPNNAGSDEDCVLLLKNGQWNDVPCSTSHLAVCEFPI
Sequence of C1q (P02745 23-245, chain 1 of 3): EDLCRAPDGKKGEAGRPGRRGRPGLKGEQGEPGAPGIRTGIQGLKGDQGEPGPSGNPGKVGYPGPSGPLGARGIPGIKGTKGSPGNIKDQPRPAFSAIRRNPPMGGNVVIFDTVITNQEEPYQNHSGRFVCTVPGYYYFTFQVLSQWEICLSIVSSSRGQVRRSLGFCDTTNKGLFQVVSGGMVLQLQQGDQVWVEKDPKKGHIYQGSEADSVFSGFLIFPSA
Sequence of C1q (P02746 28-253, chain 2 of 3): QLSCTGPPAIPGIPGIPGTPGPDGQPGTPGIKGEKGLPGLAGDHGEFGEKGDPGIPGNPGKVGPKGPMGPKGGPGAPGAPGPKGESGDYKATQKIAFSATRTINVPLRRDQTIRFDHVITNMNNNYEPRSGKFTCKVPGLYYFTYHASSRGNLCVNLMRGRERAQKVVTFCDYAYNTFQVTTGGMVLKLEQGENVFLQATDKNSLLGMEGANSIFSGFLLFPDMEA
Sequence of C1q (P02747 29-245, chain 3 of 3): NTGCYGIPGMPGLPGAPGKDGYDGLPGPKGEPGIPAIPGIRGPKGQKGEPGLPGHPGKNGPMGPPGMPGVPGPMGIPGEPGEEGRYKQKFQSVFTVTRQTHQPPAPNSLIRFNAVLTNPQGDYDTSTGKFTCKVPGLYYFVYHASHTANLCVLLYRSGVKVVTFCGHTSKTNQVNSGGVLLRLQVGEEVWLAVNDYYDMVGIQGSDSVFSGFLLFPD
Sequence of human FcγRIIIA (P08637 17-208 limits assumed): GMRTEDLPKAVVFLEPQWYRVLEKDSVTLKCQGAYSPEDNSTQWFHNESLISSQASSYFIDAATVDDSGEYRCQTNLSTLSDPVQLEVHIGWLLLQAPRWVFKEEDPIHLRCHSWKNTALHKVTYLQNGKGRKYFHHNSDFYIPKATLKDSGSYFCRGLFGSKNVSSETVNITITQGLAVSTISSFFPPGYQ
Sequence of Siglec-3 (P20138 18-259 limits assumed): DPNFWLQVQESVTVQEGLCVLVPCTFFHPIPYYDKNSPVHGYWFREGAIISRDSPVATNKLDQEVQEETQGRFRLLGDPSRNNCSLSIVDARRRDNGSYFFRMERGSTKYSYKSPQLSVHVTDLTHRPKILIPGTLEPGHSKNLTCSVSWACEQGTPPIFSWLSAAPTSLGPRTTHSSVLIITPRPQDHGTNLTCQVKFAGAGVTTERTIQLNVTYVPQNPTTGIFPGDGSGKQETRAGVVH

B1: Siglec-1 (receptor, UniProt Q9BZZ2 20-1641, looked up)
chain: SWGVSSPQDVQGVKGSCLLIPCIFSFPADVEVPDGITAIWYYDYSGQRQVVSHSADPKLVEARFRGRTEFMGNPEHRVCNLLLKDLQPEDSGSYNFRFEISEVNRWSDVKGTLVTVTEEPRVPTIASPVELLEGTEVDFNCSTPYVCLQEQVRLQWQGQDPARSVTFNSQKFEPTGVGHLETLHMAMSWQDHGRILRCQLSVANHRAQSEIHLQVKYAPKGVKILLSPSGRNILPGELVTLTCQVNSSYPAVSSIKWLKDGVRLQTKTGVLHLPQAAWSDAGVYTCQAENGVGSLVSPPISLHIFMAEVQVSPAGPILENQTVTLVCNTPNEAPSDLRYSWYKNHVLLEDAHSHTLRLHLATRADTGFYFCEVQNVHGSERSGPVSVVVNHPPLTPVLTAFLETQAGLVGILHCSVVSEPLATLVLSHGGHILASTSGDSDHSPRFSGTSGPNSLRLEIRDLEETDSGEYKCSATNSLGNATSTLDFHANAARLLISPAAEVVEGQAVTLSCRSGLSPTPDARFSWYLNGALLHEGPGSSLLLPAASSTDAGSYHCRARDGHSASGPSSPAVLTVLYPPRQPTFTTRLDLDAAGAGAGRRGLLLCRVDSDPPARLQLLHKDRVVATSLPSGGGCSTCGGCSPRMKVTKAPNLLRVEIHNPLLEEEGLYLCEASNALGNASTSATFNGQATVLAIAPSHTLQEGTEANLTCNVSREAAGSPANFSWFRNGVLWAQGPLETVTLLPVARTDAALYACRILTEAGAQLSTPVLLSVLYPPDRPKLSALLDMGQGHMALFICTVDSRPLALLALFHGEHLLATSLGPQVPSHGRFQAKAEANSLKLEVRELGLGDSGSYRCEATNVLGSSNTSLFFQVRGAWVQVSPSPELQEGQAVVLSCQVHTGVPEGTSYRWYRDGQPLQESTSATLRFAAITLTQAGAYHCQAQAPGSATTSLAAPISLHVSYAPRHVTLTTLMDTGPGRLGLLLCRVDSDPPAQLRLLHGDRLVASTLQGVGGPEGSSPRLHVAVAPNTLRLEIHGAMLEDEGVYICEASNTLGQASASADFDAQAVNVQVWPGATVREGQLVNLTCLVWTTHPAQLTYTWYQDGQQRLDAHSIPLPNVTVRDATSYRCGVGPPGRAPRLSRPITLDVLYAPRNLRLTYLLESHGGQLALVLCTVDSRPPAQLALSHAGRLLASSTAASVPNTLRLELRGPQPRDEGFYSCSARSPLGQANTSLELRLEGVRVILAPEAAVPEGAPITVTCADPAAHAPTLYTWYHNGRWLQEGPAASLSFLVATRAHAGAYSCQAQDAQGTRSSRPAALQVLYAPQDAVLSSFRDSRARSMAVIQCTVDSEPPAELALSHDGKVLATSSGVHSLASGTGHVQVARNALRLQVQDVPAGDDTYVCTAQNLLGSISTIGRLQVEGARVVAEPGLDVPEGAALNLSCRLLGGPGPVGNSTFAWFWNDRRLHAEPVPTLAFTHVARAQAGMYHCLAELPTGAAASAPVMLRVLYPPKTPTMMVFVEPEGGLRGILDCRVDSEPLASLTLHLGSRLVASSQPQGAPAEPHIHVLASPNALRVDIEALRPSDQGEYICSASNVLGSASTSTYFGVRALHRLHQFQQ
no binding: [1]

B2: [change]/[change] (other)
chain: DKTHTCPPCPAPELLGGPSVFLFPPKPKDTLMISRTPEVTCVVVDVSHEDPEVKFNWYVDGVEVHNAKTKPREEQYASTYRVVSVLTVCLQDWLNGKEYKCKVSNKALPAPIEKTISKAKGQPREPQVYTLPPSREEMTKNQVSLTCLVKGFYPSDIAVEWESNGQPENNYKTTPPVLDSDGSFFLYSKLTVDKSRWQQGNVFSCSVMHEALHNHYTQKSLSLSPGKLVLGPPLYNVSLVMSDTAGTAY
not listed: [1]
no binding: all other assays above

B3: [change]/[change] (other)
chain: B2 chain with D1N, A77N
not listed: [1] | [3] | [9] | [12]
no binding: all other assays above
